# Test results taken from publication PMC7522082, “A simple procedure for bacterial expression and purification of the fragile X protein family”.
# B1: ΔKC2 (structured_RNA)
# RNA: GGGCGAAUUCGGGAUUCCGACCAGAAGGGGCUAAGGAAUGGUGGGACGAGCUAGCGGCUGGUAUGUGCGUCU
# Key:
# His6-MBP-FXR1P [1] = molecular target: T1, His6-MBP-FXR1P (Homo sapiens, UniProt P51114-2 1-539); assay: EMSA; 250 nM protein; FA: 20 mM Tris pH 7.5, 75 mM KCl, 5 mM MgCl2, 1 uM BSA, 1 mM DTT, 100 ng/uL tRNA, ~5 nM RNA, RT 1 h; EMSA: 50 mM Tris pH 7.5, 145 mM KCl, 5 mM MgCl2, 1 uM BSA; conditions: protein: recombinant, tags: N-terminal His6-MBP
# His6-MBP = His6-MBP (UniProt P0AEX9 27-392); assay: fluorescence anisotropy; FA: 20 mM Tris pH 7.5, 75 mM KCl, 5 mM MgCl2, 1 uM BSA, 1 mM DTT, 100 ng/uL tRNA, ~5 nM RNA, RT 1 h; EMSA: 50 mM Tris pH 7.5, 145 mM KCl, 5 mM MgCl2, 1 uM BSA
# His6-MBP-FXR1P [2] = molecular target: T1, His6-MBP-FXR1P; assay: fluorescence anisotropy; 75 mM K+, 5 mM Mg2+; FA: 20 mM Tris pH 7.5, 75 mM KCl, 5 mM MgCl2, 1 uM BSA, 1 mM DTT, 100 ng/uL tRNA, ~5 nM RNA, RT 1 h; EMSA: 50 mM Tris pH 7.5, 145 mM KCl, 5 mM MgCl2, 1 uM BSA; conditions: protein: recombinant; tags: N-terminal His6-MBP; label: 3' fluorescein; G-quadruplex forming
# T1 sequence (P51114 other isoform, or with tags, fused parts or gaps): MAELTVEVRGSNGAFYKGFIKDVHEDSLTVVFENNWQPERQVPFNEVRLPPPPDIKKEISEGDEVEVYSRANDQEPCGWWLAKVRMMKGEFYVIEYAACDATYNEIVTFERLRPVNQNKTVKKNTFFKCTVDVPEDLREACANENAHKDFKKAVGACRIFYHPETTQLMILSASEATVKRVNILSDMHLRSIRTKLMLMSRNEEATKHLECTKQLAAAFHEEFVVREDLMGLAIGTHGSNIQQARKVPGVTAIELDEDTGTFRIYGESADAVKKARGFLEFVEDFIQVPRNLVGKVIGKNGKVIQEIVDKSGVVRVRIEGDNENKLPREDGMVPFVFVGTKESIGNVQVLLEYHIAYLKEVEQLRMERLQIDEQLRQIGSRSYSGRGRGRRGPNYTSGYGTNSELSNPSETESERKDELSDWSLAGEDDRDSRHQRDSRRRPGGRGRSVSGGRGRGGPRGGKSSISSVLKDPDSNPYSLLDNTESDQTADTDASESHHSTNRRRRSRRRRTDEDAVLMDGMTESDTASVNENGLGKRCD
binder,measurement,setting,value
B1,binding result,"His6-MBP-FXR1P [1]; label: 3' fluorescein (FTSC, periodate-oxidized 3' end), loop-loop pseudoknot (kissing complex)",binds
GGGGGGGGGGGGGGGGGU (structured_RNA) [poly-G17U],binding result,His6-MBP,no binding
same,Kd,His6-MBP-FXR1P [2],11.7 ± 1 nM
GCUAUCCAGAUUCUGAUU (ssRNA) [CR1],binding result,"His6-MBP-FXR1P [1]; label: 3' fluorescein, single strand, no predicted G-quadruplex",no binding
